# PMC2734569, “Functional mapping of the fission yeast DNA polymerase δ B-subunit Cdc1 by site-directed and random pentapeptide insertion mutagenesis” (BMC Molecular Biology, 2009)
# T1: Cdc1 (fission yeast DNA polymerase delta B-subunit), wild type (Schizosaccharomyces pombe, UniProt P87324 1-462)
# T1 construct: DNA polymerase delta B-subunit Cdc1, S. pombe; cdc1+ cDNA on a 1.5 kb BamHI fragment from pBTM116-Cdc1, ORF 1386 bp; also called WT; LexA-Cdc1; source: yeast two-hybrid fusion, in S. cerevisiae CTY10-5d
# T1 sequence (looked up): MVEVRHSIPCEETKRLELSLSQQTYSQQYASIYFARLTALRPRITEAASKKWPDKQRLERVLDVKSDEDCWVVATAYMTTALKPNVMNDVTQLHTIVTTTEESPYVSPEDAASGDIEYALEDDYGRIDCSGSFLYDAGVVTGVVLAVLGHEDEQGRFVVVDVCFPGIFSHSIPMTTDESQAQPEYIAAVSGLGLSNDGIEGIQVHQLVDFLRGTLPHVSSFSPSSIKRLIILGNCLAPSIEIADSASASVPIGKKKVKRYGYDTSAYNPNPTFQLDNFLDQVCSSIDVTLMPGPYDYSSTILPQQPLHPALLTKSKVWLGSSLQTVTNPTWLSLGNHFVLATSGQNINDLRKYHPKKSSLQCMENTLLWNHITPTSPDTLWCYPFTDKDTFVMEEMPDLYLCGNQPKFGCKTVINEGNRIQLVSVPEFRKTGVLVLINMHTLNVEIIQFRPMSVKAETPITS
# T2: Cdc1-J1 (Schizosaccharomyces pombe, UniProt P87324 1-462, Thr-GlyValProLeuThr-Gly)
# T2 construct: Cdc1, S. pombe, with a pentapeptide inserted after residue 141; source: yeast two-hybrid fusion, in S. cerevisiae CTY10-5d
# T2 sequence (looked up): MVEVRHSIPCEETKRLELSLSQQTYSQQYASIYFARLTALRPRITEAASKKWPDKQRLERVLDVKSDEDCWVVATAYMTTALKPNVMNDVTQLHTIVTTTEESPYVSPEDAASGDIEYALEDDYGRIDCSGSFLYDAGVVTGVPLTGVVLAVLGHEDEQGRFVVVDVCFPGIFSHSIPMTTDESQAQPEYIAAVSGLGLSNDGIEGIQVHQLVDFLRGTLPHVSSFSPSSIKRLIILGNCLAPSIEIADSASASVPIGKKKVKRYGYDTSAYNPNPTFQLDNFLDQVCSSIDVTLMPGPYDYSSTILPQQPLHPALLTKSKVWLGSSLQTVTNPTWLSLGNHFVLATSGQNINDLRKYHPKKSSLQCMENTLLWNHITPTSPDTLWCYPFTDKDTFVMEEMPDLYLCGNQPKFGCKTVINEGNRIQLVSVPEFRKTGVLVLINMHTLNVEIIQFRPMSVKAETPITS
# T3: Cdc1-J16 (Schizosaccharomyces pombe, UniProt P87324 1-462, Val-GlyGlyThrProVal-Asp)
# T3 construct: Cdc1, S. pombe, with a pentapeptide inserted after residue 160; source: yeast two-hybrid fusion, in S. cerevisiae CTY10-5d
# T3 sequence (looked up): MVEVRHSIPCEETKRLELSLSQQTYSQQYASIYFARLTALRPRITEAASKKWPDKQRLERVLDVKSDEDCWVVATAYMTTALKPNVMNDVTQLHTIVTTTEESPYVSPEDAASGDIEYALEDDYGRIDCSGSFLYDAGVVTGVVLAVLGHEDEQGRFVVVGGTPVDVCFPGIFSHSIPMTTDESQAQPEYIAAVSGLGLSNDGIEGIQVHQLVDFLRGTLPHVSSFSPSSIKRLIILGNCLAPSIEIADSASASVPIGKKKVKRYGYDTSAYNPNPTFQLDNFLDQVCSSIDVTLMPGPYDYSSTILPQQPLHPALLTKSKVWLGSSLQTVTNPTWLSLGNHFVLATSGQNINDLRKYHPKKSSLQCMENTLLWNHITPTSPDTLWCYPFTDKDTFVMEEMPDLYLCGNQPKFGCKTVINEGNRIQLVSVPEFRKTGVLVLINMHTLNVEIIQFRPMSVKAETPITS
# T4: Cdc1-J22 (Schizosaccharomyces pombe, UniProt P87324 1-462, Arg-GlyValProLeuArg-Gly)
# T4 construct: Cdc1, S. pombe, with a pentapeptide inserted after residue 212; source: yeast two-hybrid fusion, in S. cerevisiae CTY10-5d
# T4 sequence (looked up): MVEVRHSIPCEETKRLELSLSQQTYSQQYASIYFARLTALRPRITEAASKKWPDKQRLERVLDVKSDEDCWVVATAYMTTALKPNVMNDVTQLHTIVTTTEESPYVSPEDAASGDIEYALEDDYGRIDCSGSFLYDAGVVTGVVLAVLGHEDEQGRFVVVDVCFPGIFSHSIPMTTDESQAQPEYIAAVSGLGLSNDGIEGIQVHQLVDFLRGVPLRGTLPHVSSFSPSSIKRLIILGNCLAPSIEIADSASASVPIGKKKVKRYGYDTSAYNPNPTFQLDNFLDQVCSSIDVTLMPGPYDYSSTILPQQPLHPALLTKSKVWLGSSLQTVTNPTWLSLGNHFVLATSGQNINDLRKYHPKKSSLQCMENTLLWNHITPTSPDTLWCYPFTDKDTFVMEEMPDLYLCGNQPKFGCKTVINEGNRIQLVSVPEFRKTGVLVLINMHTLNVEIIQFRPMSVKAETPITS
# Columns and labels:
# Assay in all cases: two-hybrid; LexA-Cdc1 bait (pBTM116 or pBTM116BN) with Gal4-Pol3 prey and co-expressed c-myc-tagged Cdc27 (pAA-Cdc27) in S. cerevisiae CTY10-5d; ONPG liquid culture beta-galactosidase assay, mean of triplicates, as percent of wild-type Cdc1
# Settings in all cases: partners not purified
# [1] = target: T1, Cdc1 (fission yeast DNA polymerase …)
# Cdc1-J1 = target: T2, Cdc1-J1
# Cdc1-J16 = target: T3, Cdc1-J16
# Cdc1-J22 = target: T4, Cdc1-J22
binder,measurement,setting,value
"Pol3 (fission yeast DNA polymerase delta catalytic subunit) (natural protein, Schizosaccharomyces pombe, UniProt P30316 1-1086, looked up, DNA polymerase delta catalytic subunit Pol3, S. pombe; prey plasmid named pACT-Pol3 in the results and pGAD2F-Pol3 in the methods; also called Gal4-Pol3; pACT-Pol3; source: yeast two-hybrid fusion, in S. cerevisiae CTY10-5d) MTDRSSNEGVVLNKENYPFPRRNGSIHGEITDVKRRRLSERNGYGDKKGSSSKEKTSSFEDELAEYASQLDQDEIKSSKDQQWQRPALPAINPEKDDIYFQQIDSEEFTEGSVPSIRLFGVTDNGNSILVHVVGFLPYFYVKAPVGFRPEMLERFTQDLDATCNGGVIDHCIIEMKENLYGFQGNEKSPFIKIFTTNPRILSRARNVFERGEFNFEELFPVGVGVTTFESNTQYLLRFMIDCDVVGMNWIHLPASKYQFRYQNRVSNCQIEAWINYKDLISLPAEGQWSKMAPLRIMSFDIECAGRKGVFPDPSIDPVIQIASIVTQYGDSTPFVRNVFCVDTCSQIVGTQVYEFQNQAEMLSSWSKFVRDVDPDVLIGYNICNFDIPYLLDRAKSLRIHNFPLLGRIHNFFSVAKETTFSSKAYGTRESKTTSIPGRLQLDMLQVMQRDFKLRSYSLNAVCSQFLGEQKEDVHYSIITDLQNGTADSRRRLAIYCLKDAYLPQRLMDKLMCFVNYTEMARVTGVPFNFLLARGQQIKVISQLFRKALQHDLVVPNIRVNGTDEQYEGATVIEPIKGYYDTPIATLDFSSLYPSIMQAHNLCYTTLLDSNTAELLKLKQDVDYSVTPNGDYFVKPHVRKGLLPIILADLLNARKKAKADLKKETDPFKKAVLDGRQLALKVSANSVYGFTGATNGRLPCLAISSSVTSYGRQMIEKTKDVVEKRYRIENGYSHDAVVIYGDTDSVMVKFGVKTLPEAMKLGEEAANYVSDQFPNPIKLEFEKVYFPYLLISKKRYAGLFWTRTDTYDKMDSKGIETVRRDNCPLVSYVIDTALRKMLIDQDVEGAQLFTKKVISDLLQNKIDMSQLVITKALSKTDYAAKMAHVELAERMRKRDAGSAPAIGDRVAYVIIKGAQGDQFYMRSEDPIYVLENNIPIDAKYYLENQLSKPLLRIFEPILGEKASSLLHGDHTRTISMAAPSVGGIMKFAVKVETCLGCKAPIKKGKTALCENCLNRSAELYQRQVAQVNDLEVRFARLWTQCQRCQGSMHQDVICTSRDCPIFYMRIAEHKKLQQSVDLLKRFDEMSW","two-hybrid beta-galactosidase activity, % of wild-type Cdc1",[1],100%
same,"two-hybrid beta-galactosidase activity, % of wild-type Cdc1",Cdc1-J1,< 1%
same,"two-hybrid beta-galactosidase activity, % of wild-type Cdc1",Cdc1-J16,< 1%
same,"two-hybrid beta-galactosidase activity, % of wild-type Cdc1",Cdc1-J22,25%
